Source: US8293494 (UNIVERSITATSKLINIKUM FREIBURG, dated 2012)

Assays:
TAP-LSD1 = TAP-LSD1 (UniProt O60341 1-852); assay: TAP-LSD1 complexes immobilised on IgG sepharose, Western blot
Excerpt: Protein complexes were immobilised on IgG, sepharose, released from IgG sepharose by TEV protease cleavage of the TAP tag, followed by immunoprecipitation of Flag-tagged AR with α-Flag antibody. […] Ten percent of the extract used for immunoprecipitation was loaded as input.
LSD1 associated complexes were released from IgG sepharose by TEV protease cleavage of the TAP-tag followed by immunoprecipitation of Flag-tagged AR with α-Flag antibody. […] We applied the TAP-based co-purification strategy because the moderate expression levels of the endogenous proteins would only have allowed a limited number of purification steps.

[1] = target: LSD1 (endogenous, LNCaP cells) (human, UniProt O60341 1-852); assay: Re-ChIP in LNCaP cells
GFP-JHDM2A = target: T1, GFP-JHDM2A (UniProt Q9Y4C1 1-1321); assay: co-immunoprecipitation with α-Flag from transfected 293 cells, Western blot with α-GFP
T1 construct: not shown: GFP fusion partner
T1 sequence (looked up): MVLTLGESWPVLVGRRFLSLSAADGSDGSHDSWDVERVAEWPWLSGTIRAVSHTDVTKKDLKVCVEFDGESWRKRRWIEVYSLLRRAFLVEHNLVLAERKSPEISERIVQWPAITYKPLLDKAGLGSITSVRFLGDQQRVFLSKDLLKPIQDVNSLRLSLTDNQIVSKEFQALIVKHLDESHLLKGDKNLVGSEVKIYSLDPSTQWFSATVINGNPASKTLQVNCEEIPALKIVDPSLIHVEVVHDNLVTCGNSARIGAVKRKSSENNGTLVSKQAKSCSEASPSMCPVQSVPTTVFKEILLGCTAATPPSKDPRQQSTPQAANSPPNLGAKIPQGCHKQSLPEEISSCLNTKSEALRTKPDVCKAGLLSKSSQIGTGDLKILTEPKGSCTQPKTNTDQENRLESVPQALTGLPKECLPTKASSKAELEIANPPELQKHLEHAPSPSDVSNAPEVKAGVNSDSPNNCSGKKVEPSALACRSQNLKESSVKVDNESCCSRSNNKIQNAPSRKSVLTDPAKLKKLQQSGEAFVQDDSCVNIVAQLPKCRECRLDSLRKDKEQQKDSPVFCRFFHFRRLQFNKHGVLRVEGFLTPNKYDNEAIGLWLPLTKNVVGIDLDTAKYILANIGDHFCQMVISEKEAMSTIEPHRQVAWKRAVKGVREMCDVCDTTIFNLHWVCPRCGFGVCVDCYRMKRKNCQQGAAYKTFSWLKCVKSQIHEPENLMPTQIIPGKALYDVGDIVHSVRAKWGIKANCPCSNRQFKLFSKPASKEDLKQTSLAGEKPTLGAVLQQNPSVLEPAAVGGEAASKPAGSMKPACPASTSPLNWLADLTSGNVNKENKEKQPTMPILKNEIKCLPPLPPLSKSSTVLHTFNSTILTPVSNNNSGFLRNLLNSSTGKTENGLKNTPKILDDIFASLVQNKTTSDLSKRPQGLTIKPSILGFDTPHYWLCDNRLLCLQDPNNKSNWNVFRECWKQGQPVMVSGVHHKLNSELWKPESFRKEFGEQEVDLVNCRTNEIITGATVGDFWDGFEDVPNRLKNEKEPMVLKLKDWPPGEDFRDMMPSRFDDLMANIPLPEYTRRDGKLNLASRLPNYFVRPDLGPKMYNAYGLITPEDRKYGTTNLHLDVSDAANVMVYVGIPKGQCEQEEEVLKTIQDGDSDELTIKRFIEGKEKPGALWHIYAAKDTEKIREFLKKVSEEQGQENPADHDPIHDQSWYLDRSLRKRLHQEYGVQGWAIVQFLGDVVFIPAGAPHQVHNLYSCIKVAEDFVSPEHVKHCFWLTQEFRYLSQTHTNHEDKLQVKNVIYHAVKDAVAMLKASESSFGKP
Excerpt: Extracts were immunoprecipitated with α-Flag antibody. Twenty percent of the extract used for immunoprecipitation was loaded as input. Western blots were decorated with α-GFP (Santa Cruz; 1:500) or α-Flag antibody (1:2500).

B1: V5-JMJD2C (enzyme)
chain: MEVAEVESPLNPSCKIMTFRPSMEEFREFNKYLAYMESKGAHRAGLAKVIPPKEWKPRQCYDDIDNLLIPAPIQQMVTGQSGLFTQYNIQKKAMTVKEFRQLANSGKYCTPRYLDYEDLERKYWKNLTFVAPIYGADINGSIYDEGVDEWNIARLNTVLDVVEEECGISIEGVNTPYLYFGMWKTTFAWHTEDMDLYSINYLHFGEPKSWYAIPPEHGKRLERLAQGFFPSSSQGCDAFLRHKMTLISPSVLKKYGIPFDKITQEAGEFMITFPYGYHAGFNHGFNCAESTNFATVRWIDYGKVAKLCTCRKDMVKISMDIFVRKFQPDRYQLWKQGKDIYTIDHTKPTPASTPEVKAWLQRRRKVRKASRSFQCARSTSKRPKADEEEEVSDEVDGAEVPNPDSVTDDLKVSEKSEAAVKLRNTEASSEEESSASRMQVEQNLSDHIKLSGNSCLSTSVTEDIKTEDDKAYAYRSVPSISSEADDSIPLSSGYEKPEKSDPSELSWPKSPESCSSVAESNGVLTEGEESDVESHGNGLEPGEIPAVPSGERNSFKVPSIAEGENKTSKSWRHPLSRPPARSPMTLVKQQAPSDEELPEVLSIEEEVEETESWAKPLIHLWQTKSPNFAAEQEYNATVARMKPHCAICTLLMPYHKPDSSNEENDARWETKLDEVVTSEGKTKPLIPEMCFIYSEENIEYSPPNAFLEEDGTSLLISCAKCCVRVHASCYGIPSHEICDGWLCARCKRNAWTAECCLCNLRGGALKQTKNNKWAHVMCAVAVPEVRFTNVPERTQIDVGRIPLQRLKLKCIFCRHRVKRVSGACIQCSYGRCPASFHVTCAHAAGVLMEPDDWPYVVNITCFRHKVNPNVKSKACEKVISVGQTVITKHRNTRYYSCRVMAVTSQTFYEVMFDDGSFSRDTFPEDIVSRDCLKLGPPAEGEVVQVKWPDGKLYGAKYFGSNIAHMYQVEFEDGSQIAMKREDIYTLDEELPKRVKARFSTASDMRFEDTFYGADIIQGERKRQRVLSSRFKNEYVADPVYRTFLKSSFQKKCQKRQ
notes: also called CMX-DEST51-JMJD2C; not shown: V5 tag
B1: binds (TAP-LSD1).

B2: JMJD2C (endogenous, LNCaP cells) (enzyme)
chain: MEVAEVESPLNPSCKIMTFRPSMEEFREFNKYLAYMESKGAHRAGLAKVIPPKEWKPRQCYDDIDNLLIPAPIQQMVTGQSGLFTQYNIQKKAMTVKEFRQLANSGKYCTPRYLDYEDLERKYWKNLTFVAPIYGADINGSIYDEGVDEWNIARLNTVLDVVEEECGISIEGVNTPYLYFGMWKTTFAWHTEDMDLYSINYLHFGEPKSWYAIPPEHGKRLERLAQGFFPSSSQGCDAFLRHKMTLISPSVLKKYGIPFDKITQEAGEFMITFPYGYHAGFNHGFNCAESTNFATVRWIDYGKVAKLCTCRKDMVKISMDIFVRKFQPDRYQLWKQGKDIYTIDHTKPTPASTPEVKAWLQRRRKVRKASRSFQCARSTSKRPKADEEEEVSDEVDGAEVPNPDSVTDDLKVSEKSEAAVKLRNTEASSEEESSASRMQVEQNLSDHIKLSGNSCLSTSVTEDIKTEDDKAYAYRSVPSISSEADDSIPLSSGYEKPEKSDPSELSWPKSPESCSSVAESNGVLTEGEESDVESHGNGLEPGEIPAVPSGERNSFKVPSIAEGENKTSKSWRHPLSRPPARSPMTLVKQQAPSDEELPEVLSIEEEVEETESWAKPLIHLWQTKSPNFAAEQEYNATVARMKPHCAICTLLMPYHKPDSSNEENDARWETKLDEVVTSEGKTKPLIPEMCFIYSEENIEYSPPNAFLEEDGTSLLISCAKCCVRVHASCYGIPSHEICDGWLCARCKRNAWTAECCLCNLRGGALKQTKNNKWAHVMCAVAVPEVRFTNVPERTQIDVGRIPLQRLKLKCIFCRHRVKRVSGACIQCSYGRCPASFHVTCAHAAGVLMEPDDWPYVVNITCFRHKVNPNVKSKACEKVISVGQTVITKHRNTRYYSCRVMAVTSQTFYEVMFDDGSFSRDTFPEDIVSRDCLKLGPPAEGEVVQVKWPDGKLYGAKYFGSNIAHMYQVEFEDGSQIAMKREDIYTLDEELPKRVKARFSTASDMRFEDTFYGADIIQGERKRQRVLSSRFKNEYVADPVYRTFLKSSFQKKCQKRQ
notes: Endogenous protein, on chromatin (ChIP / Re-ChIP)
B2: binds [1].

B3: Flag-AR (receptor)
chain: MEVQLGLGRVYPRPPSKTYRGAFQNLFQSVREVIQNPGPRHPEAASAAPPGASLLLLQQQQQQQQQQQQQQQQQQQQQQQETSPRQQQQQQGEDGSPQAHRRGPTGYLVLDEEQQPSQPQSALECHPERGCVPEPGAAVAASKGLPQQLPAPPDEDDSAAPSTLSLLGPTFPGLSSCSADLKDILSEASTMQLLQQQQQEAVSEGSSSGRAREASGAPTSSKDNYLGGTSTISDNAKELCKAVSVSMGLGVEALEHLSPGEQLRGDCMYAPLLGVPPAVRPTPCAPLAECKGSLLDDSAGKSTEDTAEYSPFKGGYTKGLEGESLGCSGSAAAGSSGTLELPSTLSLYKSGALDEAAAYQSRDYYNFPLALAGPPPPPPPPHPHARIKLENPLDYGSAWAAAAAQCRYGDLASLHGAGAAGPGSGSPSAAASSSWHTLFTAEEGQLYGPCGGGGGGGGGGGGGGGGGGGGGGGEAGAVAPYGYTRPPQGLAGQESDFTAPDVWYPGGMVSRVPYPSPTCVKSEMGPWMDSYSGPYGDMRLETARDHVLPIDYYFPPQKTCLICGDEASGCHYGALTCGSCKVFFKRAAEGKQKYLCASRNDCTIDKFRRKNCPSCRLRKCYEAGMTLGARKLKKLGNLKLQEEGEASSTTSPTEETTQKLTVSHIEGYECQPIFLNVLEAIEPGVVCAGHDNNQPDSFAALLSSLNELGERQLVHVVKWAKALPGFRNLHVDDQMAVIQYSWMGLMVFAMGWRSFTNVNSRMLYFAPDLVFNEYRMHKSRMYSQCVRMRHLSQEFGWLQITPQEFLCMKALLLFSIIPVDGLKNQKFFDELRMNYIKELDRIIACKRKNPTSCSRRFYQLTKLLDSVQPIARELHQFTFDLLIKSHMVSVDFPEMMAEIISVQVPKILSGKVKPIYFHTQ
notes: Plasmid described previously; Assays in the presence of R1881; also called Flag-tagged AR; not shown: Flag tag
B3: binds (TAP-LSD1).

B4: Flag-JMJD2C (enzyme, human, UniProt Q9H3R0 1-1056, looked up)
chain: MEVAEVESPLNPSCKIMTFRPSMEEFREFNKYLAYMESKGAHRAGLAKVIPPKEWKPRQCYDDIDNLLIPAPIQQMVTGQSGLFTQYNIQKKAMTVKEFRQLANSGKYCTPRYLDYEDLERKYWKNLTFVAPIYGADINGSIYDEGVDEWNIARLNTVLDVVEEECGISIEGVNTPYLYFGMWKTTFAWHTEDMDLYSINYLHFGEPKSWYAIPPEHGKRLERLAQGFFPSSSQGCDAFLRHKMTLISPSVLKKYGIPFDKITQEAGEFMITFPYGYHAGFNHGFNCAESTNFATVRWIDYGKVAKLCTCRKDMVKISMDIFVRKFQPDRYQLWKQGKDIYTIDHTKPTPASTPEVKAWLQRRRKVRKASRSFQCARSTSKRPKADEEEEVSDEVDGAEVPNPDSVTDDLKVSEKSEAAVKLRNTEASSEEESSASRMQVEQNLSDHIKLSGNSCLSTSVTEDIKTEDDKAYAYRSVPSISSEADDSIPLSSGYEKPEKSDPSELSWPKSPESCSSVAESNGVLTEGEESDVESHGNGLEPGEIPAVPSGERNSFKVPSIAEGENKTSKSWRHPLSRPPARSPMTLVKQQAPSDEELPEVLSIEEEVEETESWAKPLIHLWQTKSPNFAAEQEYNATVARMKPHCAICTLLMPYHKPDSSNEENDARWETKLDEVVTSEGKTKPLIPEMCFIYSEENIEYSPPNAFLEEDGTSLLISCAKCCVRVHASCYGIPSHEICDGWLCARCKRNAWTAECCLCNLRGGALKQTKNNKWAHVMCAVAVPEVRFTNVPERTQIDVGRIPLQRLKLKCIFCRHRVKRVSGACIQCSYGRCPASFHVTCAHAAGVLMEPDDWPYVVNITCFRHKVNPNVKSKACEKVISVGQTVITKHRNTRYYSCRVMAVTSQTFYEVMFDDGSFSRDTFPEDIVSRDCLKLGPPAEGEVVQVKWPDGKLYGAKYFGSNIAHMYQVEFEDGSQIAMKREDIYTLDEELPKRVKARFSTASDMRFEDTFYGADIIQGERKRQRVLSSRFKNEYVADPVYRTFLKSSFQKKCQKRQ
notes: also called CMX-Flag-JMJD2C; not shown: Flag tag
B4: no binding (GFP-JHDM2A).
